Several values for one entry are separate records, joined by “and”; a condition that tells them apart may be missing. Equal values may be shown once.
T1: carboxypeptidase A (CPA) (Homo sapiens, UniProt P15085)
T1 sequence (P15085 111-419): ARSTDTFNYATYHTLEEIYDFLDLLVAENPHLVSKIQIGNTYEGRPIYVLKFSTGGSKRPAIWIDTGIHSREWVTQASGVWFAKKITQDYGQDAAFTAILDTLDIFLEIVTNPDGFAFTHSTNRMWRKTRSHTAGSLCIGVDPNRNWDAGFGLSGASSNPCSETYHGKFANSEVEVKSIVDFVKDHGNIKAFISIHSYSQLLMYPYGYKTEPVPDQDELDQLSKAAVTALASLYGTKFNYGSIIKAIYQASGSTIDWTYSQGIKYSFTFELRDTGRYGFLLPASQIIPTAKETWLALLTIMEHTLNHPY


Tests used:
[1] = biological target: T1, carboxypeptidase A (CPA); details: CPA specific inhibitor; reported values (Byers and Wolfenden 1973; Peterson et al. 1976); cited from earlier work
[2] = system: procarboxypeptidase A (PCPA) in human serum; assay: Activation of PCPA in human serum with clostripain, total CPA activity; assay type: biochemical; details: sera from four healthy individuals and one with pancreatitis
Experimental: In the present invention, the protease clostripain was added to activate any PCPA in the biological fluid so that total CPA could be measured.
Approximately 3 mg (500 units) of lyophilized clostripain was dissolved in 1 ml of 10 mM Tris buffer (pH 8.0) along with CaCl2 and Cleland's Reagent at final concentrations of 20 mM and 1 mM, respectively. This mixture was incubated at room temperature for approximately 2 hours. This solution was then added to serum in concentrations ranging from approximately 50 to 500 units of clostripain/ml of serum. One unit was defined as the amount of clostripain which could cleave one micromole of Nα-benzoyl arginine ethyl ester (BAEE) in one minute. Determination of PCPA levels in blood donor samples was performed with 250 units of clostripain per ml serum. The standard serum volume was 0.013 ml serum per ml total solution. This mixture was incubated for five minutes at 37° C., after which time Ellman's Reagent was added at the standard concentration to eliminate clostripain as it quickly derivatizes all sulfhydryl groups in the mixture. From this point, the standard assay as described in Example 2 was followed.

Row | Molecule | Ki [1] | CPA activities after activation, compared with trypsin [2] | CPA activity loss at supramaximal concentrations of activating protease ([2]; unlike trypsin)
1 | O=C(O)CC(Cc1ccccc1)C(=O)O (racemic) [α-benzylsuccinic acid] | 1000 nM and 1600 nM | – | –
2 | clostripain: protease added to activate PCPA in the biological fluid (protein, UniProt P09870 51-181; P09870 191-526, looked up) Clostripain light chain: NKNQKVTIMYYCDADNNLEGSLLNDIEEMKTGYKDSPNLNLIALVDRSPRYSSDEKVLGEDFSDTRLYKIEHNKANRLDGKNEFPEISTTSKYEANMGDPEVLKKFIDYCKSNYEADKYVLIMANHGGGAR Clostripain heavy chain: AICWDDSNLDKNGEADCLYMGEISDHLTEKQSVDLLAFDACLMGTAEVAYQYRPGNGGFSADTLVASSPVVWGPGFKYDKIFDRIKAGGGTNNEDDLTLGGKEQNFDPATITNEQLGALFVEEQRDSTHANGRYDQHLSFYDLKKAESVKRAIDNLAVNLSNENKKSEIEKLRGSGIHTDLMHYFDEYSEGEWVEYPYFDVYDLCEKINKSENFSSKTKDLASNAMNKLNEMIVYSFGDPSNNFKEGKNGLSIFLPNGDKKYSTYYTSTKIPHWTMQSWYNSIDTVKYGLNPYGKLSWCKDGQDPEINKVGNWFELLDSWFDKTNDVTGGVNHYQW | – | significantly higher than the maximum values that could be obtained when using trypsin | only slight CPA activity losses

From patent publication US6461832B2, “Method of detecting procarboxypeptidase A and carboxypeptidase A levels in biological fluids” (priority 1997, dated 2002)
